This passage reports amyloid nucleation score results from the supplement of paper PMC12042874.

± gives the uncertainty stated by the source.

This data set in a line: amyloid nucleation score (Sup35N fusion, yeast selection) (log enrichment); library NNK3; higher = more nucleation; inactive = no reads after selection. Summed up: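 Psi-negative yeast expressed Sup35N fused to peptides of 20 random codons. They were induced 24 hours with 100 μM copper sulfate, grown 7 days at 30°C without adenine and uracil, and their plasmid inserts from input and output were Illumina-sequenced. The nucleation score is the DiMSum log enrichment of output over input reads, centred on the mode score of non-aggregating sequences. Sequences with under 100 input reads were excluded.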
As for LSDVDPEFLFLLLFFP, the amyloid nucleation score entry is “inactive”. To LSDYIGAPFSSKSRDW belongs “inactive”. For LSFAVKCFRIGDMNAFNTFI, the amyloid nucleation score entry is “inactive”. To LSFDVKASWV belongs “inactive”. With LSFQAMLVR, the amyloid nucleation score entry is “inactive”.

Take LSFWVSYLGIVFLQNICEEW: the amyloid nucleation score entry was “inactive”. To LSGADTYRSTTRSYGGNDVV belongs -0.641 ± 1.1. Consider LSIYRFSCTNSRCLMDLFI, for which the amyloid nucleation score entry is “inactive”.

For LSLAVKVIVKG, the amyloid nucleation score entry was “inactive”.

As to LSNDQSDTMEKCRRSVTLW, the amyloid nucleation score entry is “inactive”. For the substance LSNRGLIYHEGTRICATYRE, the amyloid nucleation score was found to be 0.719 ± 0.22. Regarding LSQIEGWKCIGWVHYMVDSI, the amyloid nucleation score entry is “inactive”. With LSRINSCRLMVQVQLSRT the entry was “inactive”; with LSSGNGSFVRYI, “inactive”. Turning to LSSMWWLVRFYNFAF, the amyloid nucleation score entry was “inactive”. In the case of LSTMN, the amyloid nucleation score entry was “inactive”.

With LSVCVRPWRNKTDVVGNGNK, the amyloid nucleation score entry is “inactive”. Take LSVHTLHNG: the amyloid nucleation score result was “inactive”. Regarding LSVITVLNKKNRSDIMWIMI, the amyloid nucleation score entry is “inactive”. To LSVSYTLALTALLRHRERVW belongs “inactive”; to LSWFIYWDKIRGWSKMTIGQ, “inactive”. Consider LSWTYGRMGLRRLGGTGCYG, for which the amyloid nucleation score entry is “inactive”. To LSYSIRLLIFVRR belongs -0.293 ± 0.82; to LTASYSFVTTVGYSGLDLKV, “inactive”; to LTDRQVCNLIWNNAYGFLC, 0.257 ± 0.52.

Turning to LTKGLSAMLQFRWRAVFKNG, the amyloid nucleation score result was “inactive”. To LTKGQ belongs “inactive”; to LTLCNPPTTRRTNATFLHCL, “inactive”; to LTLSYKQERTTARGKPVYLR, “inactive”.

In the case of LTNTLAYTVRKKTFQIGLLC, the amyloid nucleation score result was “inactive”. To LTSPREMAWCPHDTAICGTT belongs “inactive”. With LTSVMIFVLVRIELPNQTLS, the amyloid nucleation score entry was “inactive”. To LTTESNLHVCVRRVGQLHLA belongs “inactive”.

Consider LTYAALYLNGKMNVENARVV, for which the amyloid nucleation score result is “inactive”. As to LTYGFFESNFGGCNRFCF, the amyloid nucleation score result is “inactive”. On to LVAFATWYNGWWVPRENEFR, for which the amyloid nucleation score is 0.033 ± 0.47. As to LVALKSHDT, the amyloid nucleation score entry was “inactive”. On to LVCNRWPNCANCRCRP, for which the amyloid nucleation score result was “inactive”. As to LVFSTSLH, the amyloid nucleation score result was “inactive”. Turning to LVIVRWNAVYTYIGFDF, the amyloid nucleation score result is “inactive”.

As for LVKIWDPSFNCFWMNGISNG, the amyloid nucleation score came out at 1.01 ± 0.14.

LVKNITPNAA: the amyloid nucleation score result was “inactive”. With LVLRFTSIDFKLFRRHST, the amyloid nucleation score result was “inactive”.

In turn, LVLVQEKHRSRTAEFDHRLT had an amyloid nucleation score of -0.186 ± 0.94. To LVLYCF belongs “inactive”; to LVLYYCVTG, “inactive”. With LVMPYDMCCTRFQRAFSVCC the entry was “inactive”; with LVPFSNGCQSGPLTLIWYVA, 2.04 ± 0.068. Regarding LVRYLENIRLRS, the amyloid nucleation score entry is “inactive”. Substance LVVCTSAFIGMTDY showed an amyloid nucleation score of -0.532 ± 0.8. For LVVIWSRYSPRRNYPVTSNM, the amyloid nucleation score worked out at 0.679 ± 0.24. Substance LVWDKVSVVWNSKEGVNVRI came in with an amyloid nucleation score of 0.256 ± 0.22. Consider LVWRTSINSLRMVEDNRDEV, for which the amyloid nucleation score entry was “inactive”.

In the case of LVWWDGSEWTTWGVADIDWT, the amyloid nucleation score entry is “inactive”. LWLSDRNSLDSIAVCA came in with an amyloid nucleation score of 1.24 ± 0.093.

LWPAAQLLLKRE: the amyloid nucleation score result is “inactive”. In the case of LWPWFNCLRGRCGRIVCGWR, the amyloid nucleation score result was “inactive”. To LWRWKYRAILKRYEKERVGR belongs “inactive”.

In the case of LWTALK, the amyloid nucleation score entry was “inactive”. Regarding LWVYAPFDSK, the amyloid nucleation score result is “inactive”. As for LYAKF, the amyloid nucleation score entry was “inactive”. To LYCGDSI belongs “inactive”; to LYEAVDRGLSRR, “inactive”; to LYFFYMPQTWVVSRCCGYNP, 3.06 ± 0.079. As for LYINVHLEEIIFSLALREK, the amyloid nucleation score is 1.71 ± 0.057. On to LYLFMAYGVLGVLRQ, for which the amyloid nucleation score came out at 0.397 ± 0.42. In turn, LYLIFFCLWSSQLDAQLFVL had an amyloid nucleation score of -0.217 ± 0.93.

As for LYRAIIIRRWFGNMGDFHKP, the amyloid nucleation score result is “inactive”. Substance LYTGYVLAIMYWAVLARENT had an amyloid nucleation score of -1.45 ± 2.5.

As to LYVFCTSY, the amyloid nucleation score result is “inactive”.

In turn, LYVLWRLGKQCHTFWFFSSI gave an amyloid nucleation score of 0.265 ± 0.44.

As to LYWATGLGVNFKFNLCLDDA, the amyloid nucleation score entry is “inactive”. With LYWEPKLTSDFKRLDLRLVP the entry was “inactive”.

LYYKSLGRCRNYLYCSH: the amyloid nucleation score is 0.596 ± 0.12. LYYMKVIGTFRISEAILLYL: the amyloid nucleation score entry was “inactive”. For the substance MALHRFS, the amyloid nucleation score entry is “inactive”.

On to MALLLDILMNNNFISIKGFI, for which the amyloid nucleation score result was “inactive”.

For MASFSRHVCMYGTLNLSGNA, the amyloid nucleation score entry is “inactive”. On to MCFEVLHACRYFVRHSSQRI, for which the amyloid nucleation score entry is “inactive”. MCGDCICVVSVMLAHAPKCS: the amyloid nucleation score entry was “inactive”. As for MCMLIYCYAQSLVMKMDSHY, the amyloid nucleation score entry was “inactive”. Regarding MCNWMNNLADSGLSASSVQV, the amyloid nucleation score result is “inactive”. In the case of MCQKQHQYQVTAIRTYMIRF, the amyloid nucleation score result is “inactive”. Substance MCQNANRYTGMSLVMFVGSV returned an amyloid nucleation score of 1.24 ± 0.12. In the case of MCTNMSRNQFITDIVLCDRS, the amyloid nucleation score result is “inactive”. For the substance MCTTRGYMF, the amyloid nucleation score result was “inactive”. To MCWLLLIRWDK belongs “inactive”; to MDGGFECGNEGICWSTCVLG, “inactive”. Take MDRASVCLEGGMSMVWLRYV: the amyloid nucleation score entry was “inactive”. To MDSFRRDEYFKSLFVMLYLS belongs “inactive”; to MEFYVYTMDKRCSRMFSWHS, “inactive”; to MFEMS, “inactive”. To MFLFFHVFKDFQIHRDLQDW belongs 0.08 ± 0.59.

Regarding MFLSWCKKVNLRMIILSSDT, the amyloid nucleation score entry was “inactive”. Regarding MFNSFTNWLRQDQCRTIIGS, the amyloid nucleation score result was “inactive”. As to MFRWLAQWALLTTTSRPASQ, the amyloid nucleation score result was “inactive”. For the substance MFSSLV, the amyloid nucleation score entry was “inactive”. To MFVVYLGYRRAVIDNDALED belongs “inactive”; to MFVWHSC, “inactive”; to MGGELCY, “inactive”.

The substance MGGICRASRCCGCPTGRNCL gave an amyloid nucleation score of 0.665 ± 0.27. For the substance MGHHRCYVRVSKKDYWF, the amyloid nucleation score result is “inactive”. In the case of MGLLLFLSANDV, the amyloid nucleation score result is “inactive”.

Regarding MGMFTNPT, the amyloid nucleation score entry was “inactive”. With MGMLNGSSSMSDGYVYGGLW, the amyloid nucleation score entry was “inactive”. Consider MGPWCRKWIICLTRVSYRVG, for which the amyloid nucleation score result was “inactive”. Consider MGVIMEGMRFFFVWMQM, for which the amyloid nucleation score result is “inactive”. Consider MGVSADTYYNIRM, for which the amyloid nucleation score came to 0.161 ± 0.43.

As to MGVVRFTYCDIKV, the amyloid nucleation score entry was “inactive”. As for MHHVLYERERSY, the amyloid nucleation score result was “inactive”.

In the case of MIFLRIFYGLLGNSQFIIFL, the amyloid nucleation score is 0.331 ± 0.56.

On to MIFRAQDSYGPLYT, for which the amyloid nucleation score result was “inactive”.

Take MIFVGILVFSDLRASKVPWV: the amyloid nucleation score result is “inactive”. In the case of MIGHFTYVGLWGSLATYVQV, the amyloid nucleation score result is “inactive”. As to MIIPSTVMQSLSTCILERAS, the amyloid nucleation score entry is “inactive”. As to MILKNWNVSISRGSRFNSYV, the amyloid nucleation score result is “inactive”. MILLFVVAFILLTEYICWAI yielded an amyloid nucleation score of 0.601 ± 0.18. On to MILLLSGGCVTESFWG, for which the amyloid nucleation score entry is “inactive”. For MILSNKVLIGCE, the amyloid nucleation score result was “inactive”. Consider MINSHDL, for which the amyloid nucleation score entry was “inactive”. For MIRSVLLIQFNALEHSVRCR, the amyloid nucleation score entry was “inactive”. Consider MISWLNQKYHVLNQNFIYG, for which the amyloid nucleation score entry was “inactive”. With MITDSGIYFAFCWDKSTVSS the entry was “inactive”; with MIVGYACFAFGAWFFGFYCM, “inactive”; with MIVSQVCTRSHVMGRSLGAE, “inactive”. With MIYSHDHTYHSCLLDAVSCR, the amyloid nucleation score entry is “inactive”. With MKDASFQP, the amyloid nucleation score entry is “inactive”. On to MKLEEELSYRFRRSWFYALW, for which the amyloid nucleation score result is “inactive”.

For MKNRYLNRCTLVANAFGLKE, the amyloid nucleation score result was “inactive”. Consider MKPSKGVDL, for which the amyloid nucleation score result was “inactive”. Turning to MKRGDDLHTLFITSVPKSGY, the amyloid nucleation score entry is “inactive”.
